Laboratory results reported in patent CN113444176A (WUHAN RENFU INNOVATIVE DRUG R&D CENTER CO LTD; HUMANWELL …, dated 2021).
Residue numbers refer to the chain shown, from its start. Names may count otherwise. Where two headings read alike, the source gives them in different places.

Legend:
[1] = molecular target: T1, 重组人NGF蛋白 (recombinant human nerve growth factor) (human, UniProt P01138 122-241); assay: SPR, Biacore 8K, NGF coupled to CM5 chip, antibody as analyte, 1:1 binding model
T1 construct: also called 重组NGF蛋白; 重组NGF抗原

[2] = molecular target: T2, 重组BDNF (脑源性神经营养因子) (Helarctos malayanus (Malayan sun bear) …, UniProt O18753 129-247); assay: competition ELISA: coated NGF, antibody preincubated with recombinant BDNF
T2 sequence: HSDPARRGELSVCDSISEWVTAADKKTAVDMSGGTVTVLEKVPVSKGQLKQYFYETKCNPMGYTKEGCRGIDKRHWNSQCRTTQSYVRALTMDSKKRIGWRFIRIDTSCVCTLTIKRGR

[3] = molecular target: T3, 重组NT4 (神经营养因子4) (Homo sapiens (Human), UniProt P34130 81-210); assay: SPR, Biacore 8K, CM5 chip, antibody as analyte
T3 sequence: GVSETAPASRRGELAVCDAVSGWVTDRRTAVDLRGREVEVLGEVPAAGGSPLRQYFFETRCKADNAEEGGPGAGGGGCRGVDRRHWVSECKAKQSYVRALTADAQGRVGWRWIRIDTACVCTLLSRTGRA

[4] = molecular target: T4, 重组NT3 (神经营养因子3) (Rattus norvegicus (Rat), UniProt P18280 140-258); assay: SPR, Biacore 8K, CM5 chip, antibody as analyte
T4 sequence: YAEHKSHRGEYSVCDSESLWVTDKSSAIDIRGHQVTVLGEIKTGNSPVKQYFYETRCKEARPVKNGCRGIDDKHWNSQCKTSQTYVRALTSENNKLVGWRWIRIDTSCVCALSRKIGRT

[5] = molecular target: T1, 重组人NGF蛋白 (recombinant human nerve …); assay: SPR, Biacore 8K, NGF coupled to CM5 chip, antibody as analyte, 1:1 binding model; remark: listed apart in the source
[6] = molecular target: T2, 重组BDNF (脑源性神经营养因子); assay: SPR, Biacore 8K, CM5 chip, antibody as analyte

T1 sequence (P01138 122-241 limits assumed): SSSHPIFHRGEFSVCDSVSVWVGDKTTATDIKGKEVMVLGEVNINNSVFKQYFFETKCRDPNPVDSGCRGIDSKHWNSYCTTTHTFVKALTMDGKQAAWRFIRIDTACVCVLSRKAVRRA

B1: 鼠源抗体F3 (anti-NGF mouse monoclonal antibody F3) (antibody, mouse IgG1, kappa, V domains shown)
VH: EVMLVESGGDLVKPGGSLKLSCAASGFTFSRYAMSWVRQTPEKRLEWVATISSGGSYTYYPDSVKGRFTISRDNAKNTLYLQMSSLRSEDTAMFYCARHGEFYGTTFDVHYFDYWGQGTTLTVSS
VL: YIVLTQSPASLAVSLGQRATISCRASESVDSYGNSFMHWYQQKPGQPPKLLIYLASNLESGVPARFSGSGSRTDFTLTIDPVEADDAATYYCQQNNEDPLTFGTGTKLELKR
notes: Hybridoma antibody; also called 杂交瘤单抗F3
In the case of B1, the Kd [1] is reported as 0.335 nM, the koff [1] is reported as 0.000121 s⁻¹ and the kon [1] is reported as 363000 M⁻¹ s⁻¹.

B2: 人源化抗NGF抗体Ab01 (antibody, human IgG4 S228P, kappa, V domains shown)
VH: EVQLVESGGGLVKPGGSLRLSCAASGFTFSRYAMSWVRQAPGKGLEWVSTISSGGSYTYYPDSVKGRFTISRDNAKNSLYLQMNSLRAEDTAVYYCARHGEFYGTTFDVHYFDYWGQGTLVTVSS
VL: AIQLTQSPSSLSASVGDRVTITCRASESVDSYGNSFMHWYQQKPGKAPKLLIYLASNLESGVPSRFSGSGSGTDFTLTISSLQPEDFATYYCQQNNEDPLTFGGGTKVEIKR
notes: Humanised from F3; human IgG4 (S228P) heavy constant region and human kappa constant region; expressed in CHO cells
B2: no binding [2]; no binding [3]; no binding [4]. It also gave a Kd [5] of 0.151 nM, a koff [5] of 4.35e-05 s⁻¹ and a kon [5] of 287000 M⁻¹ s⁻¹.

B3: 人源化抗NGF抗体Ab02 (antibody, human IgG4 S228P, kappa, V domains shown)
VH: B2 VH with K13Q, E46V, S78T
VL: EIVLTQSPATLSLSPGERATLSCRASESVDSYGNSFMHWYQQKPGQAPRLLIYLASNLESGIPDRFSGSGSGTDFTLTISRLEPEDFAVYYCQQNNEDPLTFGGGTKVEIKR
notes: as for B2
B3: no binding [6]; no binding [3]; no binding [4]. For the same binder, the Kd [5] was 0.137 nM, the koff [5] was 4.02e-05 s⁻¹ and the kon [5] was 294000 M⁻¹ s⁻¹.

B4: 人源化抗NGF抗体Ab03 (antibody, human IgG4 S228P, kappa, V domains shown)
VH: B2 VH with K13Q
VL: B3 VL with D64A, R81S
notes: as for B2
B4: no binding [6]; no binding [3]; no binding [4]. For the same binder, the Kd [5] was 0.0918 nM, the koff [5] was 2.78e-05 s⁻¹ and the kon [5] was 303000 M⁻¹ s⁻¹.

B5: 鼠源抗体G9 (anti-NGF mouse monoclonal antibody G9) (antibody, mouse IgG1, kappa, V domains shown)
VH: EVQLQQSGTVLARPGTSVRMSCKASGYTFTSYWMHWIKQRPGQGLEWIGAIYPGNSDTSYTQKFKGKAKLTAVTSTSTAYMELSSLTNEDSAVYYCTTPYGYDEDWYFNVWGAGTTVTVPS
VL: NIVMTQSPKSMSMSVGERVTLSCKASENVGTYVSWYQQKPEQPPKLLIYGASNRYTGVPDRFTGCGSATDFTLTISSVQAEDLADYHCGQSYSYPLTFGAGTKLELKR
notes: Hybridoma antibody; also called 杂交瘤单抗G9
B5 gave a Kd [1] of 1.29 nM, a koff [1] of 0.000283 s⁻¹ and a kon [1] of 219000 M⁻¹ s⁻¹.
